Values joined by “and” are separate entries in the source; they are usually repeats but may differ in a detail not shown here. Equal entries are not always repeated.
What was measured:
Assay type in all cases: cell-based, human
[1] = test system: HSV-1 strain F; experiment: HSV-1 fluorescent-focus assay in siRNA transfected PHK; conditions: siRNA 100 nM
Description: Infection studies were performed using the highly virulent HSV-1 strain F (provided by Dr. D.C. Johnson). Twenty-four to 48 h post-transfection with 100 nM claudin-1 or control siRNA, the cells were differentiated in DMEM with 10% heat-inactivated FBS for 24 h. Cells were washed twice with HBSS and infected with HSV-1 strain F at a multiplicity of infection (MOI) of 0.1 in DMEM containing 1% heat-inactivated FBS at 37° C., with rocking every 15 min. After 2 h, the viral inoculum was removed, and the cells were washed 2× with HBSS and incubated in DMEM containing 5% HI-FBS and 0.4% human-γ-globulin (Sigma; final concentration 0.5 mg/ml) for 24 hr to neutralize any extracellular virus.
HSV-infected PHK were washed 2× with PBS and fixed in 4% formaldehyde/PBS for 20 min at room temperature. A polyclonal rabbit anti-HSV-1 (Dako) antibody diluted 1:500 in PBS/1% BSA was placed on the PHK for 1 h at 37° C. followed by Alexa Fluor 488 donkey-anti-rabbit IgG H+L (1:1000, Molecular Probes) and 4′,6-diamidino-2-phenyl-indole, dihydrochloride (DAPI) (1:10,000, Molecular Probes). Coverslips were mounted onto slides with SlowFade (Molecular Probes). […] Images were stored in Portable Network Graphics (PNG) format and analyzed computationally to objectively quantify differences in focal forming units (FFU). […] Cell density was calculated by counting the number of DAPI labeled nuclei, assigned to the blue channel. Images were analyzed using MATLAB to enumerate FFU, and total cell number. […]
The MOI was chosen based on findings from viral titration (0.01 to 10 MOI) studies on differentiated and undifferentiated PHK, respectively, used as negative and positive controls. […] For each sample, six random fields were captured at identical acquisition settings and analyzed computationally to objectively quantify differences in focal forming units (FFU). […] An average of 4.8±0.7 FFU/field were counted in CLDN1 knockdown PHK, while only 2.5±0.5 FFU/field were detected in the control cells (P=0.05; n=6; FIG. 15C). Adapted Fluorospot software was used to semi-quantify differences in dimensions of each FFU. […]

[2] = test system: occludin; experiment: Western blot of occludin in siRNA transfected PHK; conditions: 48 h
Description: (§1) PHK were lysed on ice in RIPA lysis buffer (20 mM Tris, 50 mM NaCl, 2 mM EDTA, 2 mM EGTA, 1% sodium deoxycholate, 1% TX-100, and 2% SDS, pH 7.4), with 1:100 Protease Inhibitor Cocktail (Sigma), 1:100 Phosphatase Inhibitor Cocktail ([…] for 30 min at 4° C. The samples were heated at 95° C. for 10 min and then centrifuged at 14,000 rpm for 15 min. Forty μg of protein, determined by BCA (Pierce) in NuPage LDS Sample Buffer (Invitrogen) was applied to 4-12% NuPage Bis-Tris gels (Invitrogen). Electrophoresis was performed under reducing conditions with MES SDS Buffer (Invitrogen). Membranes were incubated in blotting solution (5% non-fat dry milk in PBS+0.05% Tween 20) at RT for 1 h and then incubated with primary antibodies; claudin-1 (JAY.8; Zymed), occludin (OC/3F10; Zymed) and GAPDH (FL-355; Santa Cruz). An HRP-linked secondary antibody (GE Healthcare) was used with ECL (GE Healthcare) to visualize bands by autoradiography with Kodak BioMax MR film. The pixel intensity of each band was estimated with Image J.
(§2) PHK were plated on glass coverslips at 2-3×10^5 cells/well in a 6-well plate or at 2-3×10^4 cells/filter in Transwell insert (Costar; PET membrane, 0.4 μm pore size, 6.5 mm insert) in Keratinocyte-SFM without antibiotics. […]

[3] = test system: claudin-1; experiment: Western blot of claudin-1 in siRNA transfected PHK; conditions: 48 h
Sequence of claudin-1 (O95832 whole entry): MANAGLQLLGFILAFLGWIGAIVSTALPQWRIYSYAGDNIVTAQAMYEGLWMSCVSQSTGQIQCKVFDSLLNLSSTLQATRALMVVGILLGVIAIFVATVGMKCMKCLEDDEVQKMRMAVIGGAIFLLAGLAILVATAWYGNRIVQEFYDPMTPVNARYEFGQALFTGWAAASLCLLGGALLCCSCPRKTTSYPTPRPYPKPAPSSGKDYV
Description: as §1, §2

B1: CLDN1 siRNA: claudin-1 siRNA (h), Santa Cruz; a pool of 3 separate strands, SEQ ID NO: 10-15 (nucleic acid)
chain 1: UACAUAGGCAUAGUUCAUGNN
chain 2: CAUGAACUAUGCCUAUGUANN
chain 3: AACGUAUGCAGUUAAUUCCNN
chain 4: GGAAUUAACUGCAUACGUUNN
chain 5: UGAAGAUCUAUGUAUGUGGNN
chain 6: CCACAUACAUAGAUCUUCANN
modifications: chemistry not given here
[1]; HSV-1 MOI 0.1, 24 h, n=6
  HSV-1 focal forming units: 4.8±0.7 FFU/field
[1]; HSV-1 MOI 0.1, n=6
  FFU area: 15649±4367 pixels
  diameter of the major axis of FFU: 207±22 μm and 207±21 μm
[2]
  occludin protein by Western blot: No change
[3]
  claudin-1 protein by Western blot: dose-dependent reduction
[3]; Western blot, dose-dependent
  decrease in claudin-1 protein expression compared to scrambled siRNA-transfected cells: ≤ 60%

Reference: US20130046257A1, “METHODS OF USING AGENTS THAT MODULATE CLAUDIN EXPRESSION” (priority 2010, published 2013)
